B1: coiled-coil domain of CTI1 fused with HIS tag (domain or fragment)
chain: PQISKAIAGADRKDLMRKLPKFIYDEEKALEKTRKVLAEKIAQLNSAIDDVSSQLKSEDTPNGAALSTDEIEATA
B2: α-CT coiled-coil domain fused with HIS tag (α-CT-His), fluorescently labeled (domain or fragment)
chain: INMKKREAVFSDSRKLQGEVDKLKEQILKAKETSTEAEPSSEVLNEMIEKLKSEIDDEYTEAAIAVGLEERLTAMREEFSKASSEEHLMHPVLIEKIEKLKEEFNTRLTDAPNYESLKSKLNMLRDFSRAKAASEATSLKKEINKRFQEAVDRPEIREKVEAIKAEVASSGASSFDELPDALKEKVLKTKGEVEAEMAGVLKSMGLELDAVKQNQKDTAEQIYAANENLQEKLEKLNQEITSKIEEVVRTPEIKSMVELLKVETAKASKTPGVTEAYQKIEALEQQIKQKIAEALNTSGLQEKQDELEKELAAARELAAEESDGSVKEDDDDDEDSSESGKSEMVNPSFA
modifications: fluorescently labeled using His-tag labeling kit (NanoTemper, MO-L008)

Test [1] has as its target B2. Kind of test: MST.
Test [2] has as its target coiled-coil domain of CTI3 fused with HIS tag (Arabidopsis thaliana). Briefly: MST.

For the molecule B1, binding in test [1] was characterised by a dissociation constant (Kd) of 14.8 nM.
B2: the Kd (in general, a measure of binding affinity in units of concentration) in test [2] stood at 114 nM.

(Values after article PMC7712654 (2020).)
